From publication PMC9482650, “Quantitative fragmentomics allow affinity mapping of interactomes” (Nature Communications, 2022)

How the values were obtained:
Experiment in all cases: holdup assay
Parameters in all cases: key: below the threshold = too weak to quantify, mostly under pKd 3.1 to 4
Settings in all cases: plain residues with an end cap or a label only (N-terminal biotin on a linker: ado-ado)
MPDZ_5, O75970 = target: T1, MPDZ_5, O75970
T1 sequence (O75970 695-796, limits assumed, looked up): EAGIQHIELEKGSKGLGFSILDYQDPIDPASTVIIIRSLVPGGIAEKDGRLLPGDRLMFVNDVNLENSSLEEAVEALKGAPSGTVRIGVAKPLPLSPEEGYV

PICK1, Q9NRD5 = target: PICK1, Q9NRD5
Inadl_2, Q8NI35 = target: Inadl_2, Q8NI35
GORASP1, Q9BQQ3 = target: GORASP1, Q9BQQ3
MAGI3_2, Q5TCQ9 = target: MAGI3_2, Q5TCQ9
SIPA1L2, Q9P2F8 = target: T2, SIPA1L2, Q9P2F8
T2 sequence (Q9P2F8 945-1036, limits assumed, looked up): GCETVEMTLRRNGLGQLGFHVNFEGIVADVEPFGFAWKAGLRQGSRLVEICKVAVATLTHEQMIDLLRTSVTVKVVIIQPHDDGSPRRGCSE

LIN7C, Q9NUP9 = target: T3, LIN7C, Q9NUP9
T3 sequence (Q9NUP9 88-185, limits assumed, looked up): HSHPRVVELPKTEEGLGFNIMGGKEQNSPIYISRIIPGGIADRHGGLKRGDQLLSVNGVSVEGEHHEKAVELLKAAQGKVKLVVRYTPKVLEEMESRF

GRID2IP_1, A4D2P6 = target: GRID2IP_1, A4D2P6
LNX2_2, Q8N448 = target: T4, LNX2_2, Q8N448
T4 sequence (Q8N448 334-432, limits assumed, looked up): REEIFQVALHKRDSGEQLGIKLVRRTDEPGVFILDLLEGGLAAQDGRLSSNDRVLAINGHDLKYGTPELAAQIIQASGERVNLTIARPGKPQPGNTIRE

GRIP1_5, Q9Y3R0 = target: T5, GRIP1_5, Q9Y3R0
T5 sequence (Q9Y3R0 568-668, limits assumed, looked up): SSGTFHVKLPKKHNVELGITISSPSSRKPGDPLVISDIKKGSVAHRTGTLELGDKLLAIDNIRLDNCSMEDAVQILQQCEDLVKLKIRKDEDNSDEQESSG

DLG3_2, Q92796 = target: T6, DLG3_2, Q92796
T6 sequence (Q92796 221-321, limits assumed, looked up): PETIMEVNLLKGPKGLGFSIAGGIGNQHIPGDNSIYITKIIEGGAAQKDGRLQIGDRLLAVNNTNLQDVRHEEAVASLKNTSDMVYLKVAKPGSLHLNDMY

NHERF3_4, Q5T2W1 = target: T7, NHERF3_4, Q5T2W1
T7 sequence (Q5T2W1 373-468, limits assumed, looked up): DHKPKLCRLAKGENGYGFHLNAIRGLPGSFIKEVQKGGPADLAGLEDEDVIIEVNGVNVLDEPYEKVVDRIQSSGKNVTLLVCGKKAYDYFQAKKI

DFNB31_3, Q9P202 = target: T8, DFNB31_3, Q9P202
T8 sequence (Q9P202 811-907, limits assumed, looked up): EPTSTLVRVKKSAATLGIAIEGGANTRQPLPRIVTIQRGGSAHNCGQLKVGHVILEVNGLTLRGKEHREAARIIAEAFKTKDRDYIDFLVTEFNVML

FRMPD2_3, Q68DX3 = target: FRMPD2_3, Q68DX3
AHNAK1, Q09666 = target: AHNAK1, Q09666
SCRIB_2, Q14160 = target: SCRIB_2, Q14160
GORASP2, Q9H8Y8 = target: GORASP2, Q9H8Y8
DVL3, Q92997 = target: T9, DVL3, Q92997
T9 sequence (Q92997 244-331, limits assumed, looked up): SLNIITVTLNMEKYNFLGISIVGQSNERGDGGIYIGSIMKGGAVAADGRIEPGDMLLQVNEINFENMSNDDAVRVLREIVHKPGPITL

GRIP2_3, Q9C0E4 = target: GRIP2_3, Q9C0E4
LNX1_2, Q8TBB1 = target: LNX1_2, Q8TBB1
NHERF3_3, Q5T2W1 = target: T10, NHERF3_3, Q5T2W1
T10 sequence (Q5T2W1 238-333, limits assumed, looked up): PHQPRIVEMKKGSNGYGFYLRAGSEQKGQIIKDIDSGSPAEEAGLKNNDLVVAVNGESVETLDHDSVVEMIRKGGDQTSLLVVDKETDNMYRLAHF

TJP1_2, Q07157 = target: TJP1_2, Q07157
SNTB1, Q13884 = target: T11, SNTB1, Q13884
T11 sequence (Q13884 107-205, limits assumed, looked up): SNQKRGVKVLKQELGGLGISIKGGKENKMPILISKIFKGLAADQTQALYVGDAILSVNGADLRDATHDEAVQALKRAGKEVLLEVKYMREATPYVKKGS

SHANK1, Q9Y566 = target: T12, SHANK1, Q9Y566
T12 sequence (Q9Y566 658-767, limits assumed, looked up): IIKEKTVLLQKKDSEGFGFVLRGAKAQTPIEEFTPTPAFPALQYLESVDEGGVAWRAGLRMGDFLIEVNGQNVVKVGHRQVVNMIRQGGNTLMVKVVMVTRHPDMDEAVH

FRMPD4, Q14CM0 = target: FRMPD4, Q14CM0
Chain of FRMPD4, Q14CM0 (Q14CM0 67-160): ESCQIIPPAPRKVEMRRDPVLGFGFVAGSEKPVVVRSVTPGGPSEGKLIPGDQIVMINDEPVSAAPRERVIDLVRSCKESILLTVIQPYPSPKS

Chain of FRMPD2_3, Q68DX3 (Q68DX3 1073-1166): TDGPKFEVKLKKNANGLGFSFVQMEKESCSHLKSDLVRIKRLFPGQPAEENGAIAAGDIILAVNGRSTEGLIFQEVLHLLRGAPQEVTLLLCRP
Chain of PICK1, Q9NRD5 (Q9NRD5 17-115): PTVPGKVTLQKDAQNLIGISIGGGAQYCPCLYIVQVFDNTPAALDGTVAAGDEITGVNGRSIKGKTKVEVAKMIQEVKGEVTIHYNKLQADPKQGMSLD
Chain of SCRIB_2, Q14160 (Q14160 857-960): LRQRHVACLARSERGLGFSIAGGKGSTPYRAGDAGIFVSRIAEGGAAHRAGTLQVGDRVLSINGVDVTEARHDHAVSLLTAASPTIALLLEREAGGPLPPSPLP
Chain of TJP1_2, Q07157 (Q07157 181-274): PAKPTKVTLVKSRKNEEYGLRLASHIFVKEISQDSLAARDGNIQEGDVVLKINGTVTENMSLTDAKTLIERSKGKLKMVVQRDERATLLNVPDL
Chain of AHNAK1, Q09666 (Q09666 4-100): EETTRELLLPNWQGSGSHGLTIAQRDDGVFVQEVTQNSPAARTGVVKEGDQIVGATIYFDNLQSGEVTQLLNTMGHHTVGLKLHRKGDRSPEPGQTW
Chain of GORASP1, Q9BQQ3 (Q9BQQ3 1-208): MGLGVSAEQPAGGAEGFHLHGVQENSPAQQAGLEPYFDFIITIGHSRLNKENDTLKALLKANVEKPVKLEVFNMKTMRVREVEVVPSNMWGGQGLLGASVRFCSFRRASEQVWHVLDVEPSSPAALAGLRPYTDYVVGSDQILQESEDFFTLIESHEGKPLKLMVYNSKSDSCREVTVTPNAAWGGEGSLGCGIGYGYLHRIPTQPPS
Chain of MAGI3_2, Q5TCQ9 (Q5TCQ9 398-503): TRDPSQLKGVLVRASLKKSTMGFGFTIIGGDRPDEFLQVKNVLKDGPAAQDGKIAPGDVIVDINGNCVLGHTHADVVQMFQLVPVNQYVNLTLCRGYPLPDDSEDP
Chain of GRID2IP_1, A4D2P6 (A4D2P6 1-87): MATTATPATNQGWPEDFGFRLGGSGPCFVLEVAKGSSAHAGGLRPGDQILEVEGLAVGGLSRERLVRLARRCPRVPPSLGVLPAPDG
Chain of GRIP2_3, Q9C0E4 (Q9C0E4 238-339): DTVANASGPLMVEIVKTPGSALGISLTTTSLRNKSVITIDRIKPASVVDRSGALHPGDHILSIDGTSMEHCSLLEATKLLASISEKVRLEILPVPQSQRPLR
Chain of LNX1_2, Q8TBB1 (Q8TBB1 371-470): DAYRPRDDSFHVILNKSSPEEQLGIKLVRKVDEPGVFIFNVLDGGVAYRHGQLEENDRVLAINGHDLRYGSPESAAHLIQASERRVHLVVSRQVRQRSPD
Chain of Inadl_2, Q8NI35 (Q8NI35 238-335): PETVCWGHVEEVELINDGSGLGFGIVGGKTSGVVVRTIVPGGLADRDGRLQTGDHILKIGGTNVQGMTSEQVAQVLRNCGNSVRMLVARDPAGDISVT

B1: ADGRA3, Q8IWK6 (peptide)
chain: TGLWKHETTV
pKd (MPDZ_5, O75970): below the threshold
pKd (PICK1, Q9NRD5): 4.16
pKd (Inadl_2, Q8NI35): below the threshold
pKd (GORASP1, Q9BQQ3): below the threshold
pKd (MAGI3_2, Q5TCQ9): 5.48
pKd (SIPA1L2, Q9P2F8): below the threshold
pKd (LIN7C, Q9NUP9): 4.6
pKd (GRID2IP_1, A4D2P6): below the threshold
pKd (LNX2_2, Q8N448): 4.93
pKd (GRIP1_5, Q9Y3R0): below the threshold
pKd (DLG3_2, Q92796): 5.25
pKd (NHERF3_4, Q5T2W1): below the threshold
pKd (DFNB31_3, Q9P202): 3.85
pKd (FRMPD2_3, Q68DX3): below the threshold
pKd (AHNAK1, Q09666): below the threshold
pKd (SCRIB_2, Q14160): 4.56
pKd (GORASP2, Q9H8Y8): 3.98
pKd (DVL3, Q92997): below the threshold
pKd (GRIP2_3, Q9C0E4): below the threshold
pKd (LNX1_2, Q8TBB1): 3.8
pKd (NHERF3_3, Q5T2W1): below the threshold
pKd (TJP1_2, Q07157): below the threshold
pKd (SNTB1, Q13884): 4.84
pKd (SHANK1, Q9Y566): below the threshold
pKd (FRMPD4, Q14CM0): below the threshold

B2: PLXNB1, O43157 (peptide)
chain: AAVENKVTDL
pKd (MPDZ_5, O75970): below the threshold
pKd (PICK1, Q9NRD5): below the threshold
pKd (Inadl_2, Q8NI35): below the threshold
pKd (GORASP1, Q9BQQ3): below the threshold
pKd (MAGI3_2, Q5TCQ9): below the threshold
pKd (SIPA1L2, Q9P2F8): below the threshold
pKd (LIN7C, Q9NUP9): below the threshold
pKd (GRID2IP_1, A4D2P6): below the threshold
pKd (LNX2_2, Q8N448): below the threshold
pKd (GRIP1_5, Q9Y3R0): below the threshold
pKd (DLG3_2, Q92796): 3.72
pKd (NHERF3_4, Q5T2W1): 3.47
pKd (DFNB31_3, Q9P202): 3.94
pKd (FRMPD2_3, Q68DX3): below the threshold
pKd (AHNAK1, Q09666): below the threshold
pKd (SCRIB_2, Q14160): 3.52
pKd (GORASP2, Q9H8Y8): 3.9
pKd (DVL3, Q92997): below the threshold
pKd (GRIP2_3, Q9C0E4): below the threshold
pKd (LNX1_2, Q8TBB1): below the threshold
pKd (NHERF3_3, Q5T2W1): below the threshold
pKd (TJP1_2, Q07157): below the threshold
pKd (SNTB1, Q13884): 4.63
pKd (SHANK1, Q9Y566): below the threshold
pKd (FRMPD4, Q14CM0): 3.68

B3: JUP, P14923 (peptide)
chain: PYPTADHMLA
pKd (MPDZ_5, O75970): below the threshold
pKd (PICK1, Q9NRD5): below the threshold
pKd (Inadl_2, Q8NI35): below the threshold
pKd (GORASP1, Q9BQQ3): below the threshold
pKd (MAGI3_2, Q5TCQ9): 3.73
pKd (SIPA1L2, Q9P2F8): below the threshold
pKd (LIN7C, Q9NUP9): 3.87
pKd (GRID2IP_1, A4D2P6): below the threshold
pKd (LNX2_2, Q8N448): below the threshold
pKd (GRIP1_5, Q9Y3R0): below the threshold
pKd (DLG3_2, Q92796): 4.05
pKd (NHERF3_4, Q5T2W1): below the threshold
pKd (DFNB31_3, Q9P202): 3.83
pKd (FRMPD2_3, Q68DX3): below the threshold
pKd (AHNAK1, Q09666): below the threshold
pKd (SCRIB_2, Q14160): below the threshold
pKd (GORASP2, Q9H8Y8): below the threshold
pKd (DVL3, Q92997): below the threshold
pKd (GRIP2_3, Q9C0E4): below the threshold
pKd (LNX1_2, Q8TBB1): below the threshold
pKd (NHERF3_3, Q5T2W1): below the threshold
pKd (TJP1_2, Q07157): below the threshold
pKd (SNTB1, Q13884): below the threshold
pKd (SHANK1, Q9Y566): below the threshold
pKd (FRMPD4, Q14CM0): below the threshold

B4: FZD4, Q9ULV1 (peptide)
chain: KPGKGSETVV
pKd (MPDZ_5, O75970): below the threshold
pKd (PICK1, Q9NRD5): below the threshold
pKd (Inadl_2, Q8NI35): below the threshold
pKd (GORASP1, Q9BQQ3): 3.78
pKd (MAGI3_2, Q5TCQ9): 5.64
pKd (SIPA1L2, Q9P2F8): below the threshold
pKd (LIN7C, Q9NUP9): 4.08
pKd (GRID2IP_1, A4D2P6): below the threshold
pKd (LNX2_2, Q8N448): 4.92
pKd (GRIP1_5, Q9Y3R0): below the threshold
pKd (DLG3_2, Q92796): 4.77
pKd (NHERF3_4, Q5T2W1): below the threshold
pKd (DFNB31_3, Q9P202): below the threshold
pKd (FRMPD2_3, Q68DX3): below the threshold
pKd (AHNAK1, Q09666): below the threshold
pKd (SCRIB_2, Q14160): 3.83
pKd (GORASP2, Q9H8Y8): 4.24
pKd (DVL3, Q92997): below the threshold
pKd (GRIP2_3, Q9C0E4): below the threshold
pKd (LNX1_2, Q8TBB1): 3.56
pKd (NHERF3_3, Q5T2W1): below the threshold
pKd (TJP1_2, Q07157): below the threshold
pKd (SNTB1, Q13884): 4.78
pKd (SHANK1, Q9Y566): below the threshold
pKd (FRMPD4, Q14CM0): below the threshold
